Laboratory results published in patent publication US20190002889.

How the values were obtained:
[1] = system: T1, RspWYL1 (WP_046441785.1, Ruminococcus sp. N15.MGS-57 WYL1 accessory protein)
T1 sequence: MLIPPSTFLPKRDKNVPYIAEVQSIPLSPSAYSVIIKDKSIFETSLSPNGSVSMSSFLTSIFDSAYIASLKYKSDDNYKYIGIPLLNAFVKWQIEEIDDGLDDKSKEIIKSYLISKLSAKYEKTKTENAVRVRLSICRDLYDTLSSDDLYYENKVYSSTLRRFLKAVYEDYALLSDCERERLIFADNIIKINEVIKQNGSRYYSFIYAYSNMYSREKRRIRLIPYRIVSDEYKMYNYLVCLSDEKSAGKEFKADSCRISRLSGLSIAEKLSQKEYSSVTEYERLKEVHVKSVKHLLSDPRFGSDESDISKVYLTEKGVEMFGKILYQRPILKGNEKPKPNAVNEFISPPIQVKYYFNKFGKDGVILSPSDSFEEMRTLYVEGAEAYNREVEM

[2] = biological target: T2, RspWYL1 (WP_046441785.1, Ruminococcus sp. N15.MGS-57 WYL1 accessory protein)
T2 chain: T1 sequence

Bergeyella zoohelcum Cas13b (BzCas13b)
in vitro ssRNA cleavage activity (denaturing gel) [1]: RspWYL1 enhanced the activity of BzCas13b

B1: RspCas13d (WP_046441786.1, Ruminococcus sp. N15.MGS-57 Type VI-D CRISPR-Cas effector) (protein)
chain: MAKKNKMKPRELREAQKKARQLKAAEINNNAAPAIAAMPAAEVIAPVAEKKKSSVKAAGMKSILVSKNKMYITSFGKGNSAVLEYEVDNNDYNQTQLSSKGSSNIELRGVNEVNITFSSKHGFESGVEINTSNPTHRSGESSPVRGDMLGLKSELEKRFFGKTFDDNIHIQLIYNILDIEKILAVYVTNIVYALNNMLSIKDSESYDDFMGYLSARNTYEVFTHPDKSNLSDKAKGNIKKSFSTFNDLLKTKRLGYFGLEEPKTKDTRVSQAYKKRVYHMLAIVGQIRQSVFHDKSSKLDEDLYSFIDIIDSEYRETLDYLVDERFDSINKGFIQGNKVNISLLIDMMKGYEADDIIRLYYDFIVLKSQKNLGFSIKKLREKMLDEYGFRFKDKQYDSVRSKMYKLMDFLLFCNYYRNDVVAGEALVRKLRFSMTDDEKEGIYADEASKLWGKFRNDFENIADHMNGDVIKELGKADMDFDEKILDSEKKNASDLLYFSKMIYMLTYFLDGKEINDLLTTLISKFDNIKEFLKIMKSSAVDVECELTAGYKLFNDSQRITNELFIVKNIASMRKPASSAKLTMFRDALTILGIDDNITDDRISEILKLKEKGKGIHGLRNFITNNVIESSRFVYLIKYANAQKIRKVAKNEKVVMFVLGGIPDTQIERYYKSCVEFPDMNSSLEVKRSELARMIKNISFDDFKNVKQQAKGRENVAKERAKAVIGLYLTVMYLLVKNLVNVNARYVIAIHCLERDFGLYKEIIPELASKNLKNDYRILSQTLCELCDKSPNLFLKKNERLRKCVEVDINNADSSMTRKYRNCIAHLTVVRELKEYIGDIRTVDSYFSIYHYVMQRCITKRENDTKQEEKIKYEDDLLKNHGYTKDFVKALNSPFGYNIPRFKNLSIEQLFDRNEYLTEK
targeted and collateral ssRNA cleavage activity (in vitro ssRNA cleavage assay, denaturing gel) [2]: RspWYL1 increases both the targeted and collateral ssRNA cleavage activity of RspCas13d in a dose-dependent manner, with a molar excess of RspWYL1 yielding the greatest increase in Cas13d activity

B2: EsCas13d (WP_005358205.1, Eubacterium siraeum DSM 15702 Type VI-D CRISPR-Cas effector) (protein)
chain: MGKKIHARDLREQRKTDRTEKFADQNKKREAERAVPKKDAAVSVKSVSSVSSKKDNVTKSMAKAAGVKSVFAVGNTVYMTSFGRGNDAVLEQKIVDTSHEPLNIDDPAYQLNVVTMNGYSVTGHRGETVSAVTDNPLRRFNGRKKDEPEQSVPTDMLCLKPTLEKKFFGKEFDDNIHIQLIYNILDIEKILAVYSTNAIYALNNMSADENIENSDFFMKRTTDETFDDFEKKKESTNSREKADFDAFEKFIGNYRLAYFADAFYVNKKNPKGKAKNVLREDKELYSVLTLIGKLRHWCVHSEEGRAEFWLYKLDELKDDFKNVLDVVYNRPVEEINNRFIENNKVNIQILGSVYKNTDIAELVRSYYEFLITKKYKNMGFSIKKLRESMLEGKGYADKEYDSVRNKLYQMTDFILYTGYINEDSDRADDLVNTLRSSLKEDDKTTVYCKEADYLWKKYRESIREVADALDGDNIKKLSKSNIEIQEDKLRKCFISYADSVSEFTKLIYLLTRFLSGKEINDLVTTLINKFDNIRSFLEIMDELGLDRTFTAEYSFFEGSTKYLAELVELNSFVKSCSFDINAKRTMYRDALDILGIESDKTEEDIEKMIDNILQIDANGDKKLKKNNGLRNFIASNVIDSNRFKYLVRYGNPKKIRETAKCKPAVRFVLNEIPDAQIERYYEACCPKNTALCSANKRREKLADMIAEIKFENFSDAGNYQKANVTSRTSEAEIKRKNQAIIRLYLTVMYIMLKNLVNVNARYVIAFHCVERDTKLYAESGLEVGNIEKNKTNLTMAVMGVKLENGIIKTEFDKSFAENAANRYLRNARWYKLILDNLKKSERAVVNEFRNTVCHLNAIRNININIKEIKEVENYFALYHYLIQKHLENRFADKKVERDTGDFISKLEEHKTYCKDFVKAYCTPFGYNLVRYKNLTIDGLFDKNYPGKDDSDEQK
targeted and collateral ssRNA nuclease activities (in vitro ssRNA cleavage assay, denaturing gel) [2]: RspWYL1 enhanced the targeted and collateral ssRNA nuclease activities of EsCas13d to a similar extent as observed for RspCas13d
